{
  "source": "patent US20110117113A1",
  "about": "“IMMUNOGLOBULIN SINGLE VARIABLE DOMAIN DIRECTED AGAINST HUMAN CXCR4 AND OTHER CELL ASSOCIATED PROTEINS AND METHODS TO GENERATE THEM” (priority 2009, published 2011)",
  "binders": {"B1": {"name": "Nanobody 238D4 (VHH)", "VHH": "EVQLMESGGGLVQAGGSLRLSCAASGRTFNNYAMGWFRRAPGKEREFVAAITRSGVRSGVSAIYGDSVKDRFTISRDNAKNTLYLQMNSLKPEDTAVYTCAASAIGSGALRRFEYDYSGQGTQVTVSS"}},
  "key": {"[1]": {"biological_target": "all CXCR4 library clones containing a mutation at E179", "assay": "immunofluorescence, average over all clones with a mutation at E179"}, "[2]": {"biological_target": "all CXCR4 library clones containing a mutation at F189", "assay": "immunofluorescence, average over all clones with a mutation at F189"}},
  "data": [
    {"binder": "B1", "values": [
      {"measurement": "average nanobody reactivity", "setting": "[1]", "value": 13.8, "unit": "%"},
      {"measurement": "average nanobody reactivity", "setting": "[2]", "value": 0.2, "unit": "%"}
    ]}
  ]
}
